Source: US20240239915A1 (Zymeworks, published 2024)

Columns and labels:
[1] = target: T1, human FcRn (human neonatal Fc receptor large subunit p51 and beta2-microglobulin), biotinylated (human, UniProt P55899 24-297; P61769 21-119, biotinylated (site not stated)); assay: BLI (Octet RED384), biotinylated FcRn on streptavidin biosensor, binding at pH 6.0, dissociation at pH 7.4
[2] = target: T2, Recombinant Cynomolgus Fc gamma RIII/CD16 Protein (R&D Systems), His-tagged (cynomolgus, UniProt Q8SPW2 17-208); assay: SPR (Biacore T200); receptor immobilized directly on CM5 chip, antibody as analyte at 4.7 µM
T2 construct: also called cynomolgus FcγRIII; cFcγRIII
T2 chain: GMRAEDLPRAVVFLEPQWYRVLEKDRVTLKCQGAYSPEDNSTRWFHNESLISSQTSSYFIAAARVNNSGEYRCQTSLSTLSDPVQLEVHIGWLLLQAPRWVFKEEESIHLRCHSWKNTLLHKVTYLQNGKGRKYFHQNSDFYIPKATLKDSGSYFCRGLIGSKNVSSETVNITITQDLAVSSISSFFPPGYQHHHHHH

[3] = target: T3, Recombinant Cynomolgus Fc gamma RIIB protein (R&D Systems), His-tagged (cynomolgus); assay: as above
T3 construct: also called cynomolgus FcγRIIb; cFcγRIIb
T3 chain: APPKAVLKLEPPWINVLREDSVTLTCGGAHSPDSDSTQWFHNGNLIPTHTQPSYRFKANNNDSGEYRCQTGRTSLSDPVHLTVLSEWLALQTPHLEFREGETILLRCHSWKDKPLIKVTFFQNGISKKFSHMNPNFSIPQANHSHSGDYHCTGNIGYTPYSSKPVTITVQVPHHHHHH

[4] = target: T4, Recombinant Cynomolgus Fc gamma RIIA/CD32a Protein (R&D Systems), His-tagged (cynomolgus); assay: as above
T4 construct: also called cynomolgus FcγRIIa; cFcγRIIa
T4 chain: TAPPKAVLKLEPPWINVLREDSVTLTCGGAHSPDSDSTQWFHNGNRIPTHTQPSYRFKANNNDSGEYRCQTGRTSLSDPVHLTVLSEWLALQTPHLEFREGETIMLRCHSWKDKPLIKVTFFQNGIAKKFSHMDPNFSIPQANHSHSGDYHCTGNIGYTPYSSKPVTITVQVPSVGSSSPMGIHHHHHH

[5] = target: T5, Recombinant Human Fc gamma RI/CD64 Protein, CF (R&D Systems), His-tagged (human, UniProt P12314 16-288); assay: SPR (Biacore T200), RU at 4.7 µM antibody
T5 construct: also called human FcγRI; hFcγRI
T5 sequence (P12314 other isoform, or with tags, fused parts or gaps): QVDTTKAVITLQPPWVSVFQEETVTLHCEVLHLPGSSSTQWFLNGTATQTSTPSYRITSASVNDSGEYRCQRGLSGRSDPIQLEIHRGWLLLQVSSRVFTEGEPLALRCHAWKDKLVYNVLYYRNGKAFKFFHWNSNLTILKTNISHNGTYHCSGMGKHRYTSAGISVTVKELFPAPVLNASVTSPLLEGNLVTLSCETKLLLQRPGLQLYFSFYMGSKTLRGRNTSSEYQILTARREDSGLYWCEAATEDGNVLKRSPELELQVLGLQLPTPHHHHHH

[6] = target: T6, Recombinant Human Fc gamma RIIA/CD32a (H167) Protein (R&D Systems), His-tagged (human, UniProt P12318 34-218); assay: SPR (Biacore T200), RU at 4.7 µM antibody
T6 construct: also called human FcγRIIa (H167); hFcγRIIa (H167)
T6 sequence: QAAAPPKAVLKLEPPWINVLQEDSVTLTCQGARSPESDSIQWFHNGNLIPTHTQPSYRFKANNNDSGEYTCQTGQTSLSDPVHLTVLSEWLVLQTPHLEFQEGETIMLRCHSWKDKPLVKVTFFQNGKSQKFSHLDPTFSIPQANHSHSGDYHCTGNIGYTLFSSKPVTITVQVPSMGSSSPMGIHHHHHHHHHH

[7] = target: T7, Recombinant Human Fc gamma RIIIA/CD16a (V176F) Protein (R&D Systems), His-tagged (human, UniProt P08637 17-208); assay: SPR (Biacore T200); receptor immobilized directly on CM5 chip, antibody as analyte at 4.7 µM
T7 construct: no further substitution applied; also called human FcγRIIIa (V176F); hFcγRIIIa (V176F)
T7 sequence (P08637 other isoform, or with tags, fused parts or gaps V176F V176F): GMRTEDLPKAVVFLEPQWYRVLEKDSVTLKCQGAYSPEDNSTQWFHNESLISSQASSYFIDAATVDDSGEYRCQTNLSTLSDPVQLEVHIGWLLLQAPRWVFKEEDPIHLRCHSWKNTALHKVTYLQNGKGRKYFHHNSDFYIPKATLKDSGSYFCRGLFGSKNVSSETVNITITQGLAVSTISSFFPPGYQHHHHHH

[8] = target: T6, Recombinant Human Fc gamma RIIA/CD32a …; assay: as above
[9] = target: T8, Recombinant Human Fc gamma RIIIA/CD16a protein (R&D Systems), His-tagged (human, UniProt P08637 17-208); assay: as above
T8 construct: also called human FcγRIIIa; hFcγRIIIa
T8 sequence (P08637 other isoform, or with tags, fused parts or gaps): as the sequence (P08637 other isoform, or with tags, fused parts or gaps V176F V176F) above, with F160V counted along it

[10] = target: T9, Recombinant Human Fc gamma RIIIB/CD16b Protein (R&D Systems), His-tagged (human, UniProt O75015 20-208); assay: as above
T9 construct: also called human FcγRIIIb; hFcγRIIIb
T9 chain: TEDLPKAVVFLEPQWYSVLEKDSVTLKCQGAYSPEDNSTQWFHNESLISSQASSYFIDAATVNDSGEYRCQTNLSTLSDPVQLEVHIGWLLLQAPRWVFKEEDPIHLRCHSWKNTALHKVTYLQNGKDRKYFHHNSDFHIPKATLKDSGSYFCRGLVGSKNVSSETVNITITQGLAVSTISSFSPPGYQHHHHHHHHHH

[11] = target: T10, Recombinant Human Fc gamma RIIB/C (CD32b/c) Protein (R&D Systems), His-tagged (human, UniProt P31994 46-217); assay: as above
T10 construct: also called human FcγRIIb/c; hFcγRIIb/c
T10 sequence: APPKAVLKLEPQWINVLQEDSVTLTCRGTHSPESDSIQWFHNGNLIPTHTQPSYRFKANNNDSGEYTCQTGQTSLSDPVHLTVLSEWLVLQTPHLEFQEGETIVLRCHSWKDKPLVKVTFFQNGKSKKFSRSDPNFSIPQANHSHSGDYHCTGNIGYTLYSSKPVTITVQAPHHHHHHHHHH

[12] = target: T1, human FcRn (human neonatal Fc receptor …); assay: BLI (Octet RED384), biotinylated FcRn on streptavidin biosensor, binding and dissociation at pH 6.0

T1 sequence (P55899 24-297 limits assumed, chain 1 of 2): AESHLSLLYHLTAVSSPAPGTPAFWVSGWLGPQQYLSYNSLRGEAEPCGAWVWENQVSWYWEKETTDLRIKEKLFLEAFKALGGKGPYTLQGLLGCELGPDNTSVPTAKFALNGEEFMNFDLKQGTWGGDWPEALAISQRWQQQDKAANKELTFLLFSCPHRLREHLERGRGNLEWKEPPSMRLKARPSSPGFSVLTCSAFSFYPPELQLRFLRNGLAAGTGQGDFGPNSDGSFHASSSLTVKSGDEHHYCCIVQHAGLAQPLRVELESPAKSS
T1 sequence (P61769 21-119 limits assumed, chain 2 of 2): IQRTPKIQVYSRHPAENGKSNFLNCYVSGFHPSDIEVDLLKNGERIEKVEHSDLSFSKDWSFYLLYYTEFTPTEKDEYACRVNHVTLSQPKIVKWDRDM

B1: L234A/L235A/D265G (LALA-DG) variant of IgG1 WT of the anti-EGFR antibody panitumumab (antibody)
heavy: QVQLQESGPGLVKPSETLSLTCTVSGGSVSSGDYYWTWIRQSPGKGLEWIGHIYYSGNTNYNPSLKSRLTISIDTSKTQFSLKLSSVTAADTAIYYCVRDRVTGAFDIWGQGTMVTVSSASTKGPSVFPLAPSSKSTSGGTAALGCLVKDYFPEPVTVSWNSGALTSGVHTFPAVLQSSGLYSLSSVVTVPSSSLGTQTYICNVNHKPSNTKVDKRVEPKSCDKTHTCPPCPAPEAAGGPSVFLFPPKPKDTLMISRTPEVTCVVVGVSHEDPEVKFNWYVDGVEVHNAKTKPREEQYNSTYRVVSVLTVLHQDWLNGKEYKCKVSNKALPAPIEKTISKAKGQPREPQVYTLPPSREEMTKNQVSLTCLVKGFYPSDIAVEWESNGQPENNYKTTPPVLDSDGSFFLYSKLTVDKSRWQQGNVFSCSVMHEALHNHYTQKSLSLSPGK
light: not shown
notes: Mutations in both CH2 domains; positions are EU numbers
Question: With B1 as the binder, how does the koff [1] read?
Answer: 2.2 s⁻¹

Question: What about the “binding response (RU)” value [2] of the same binder?
Answer: 3.8 RU

Question: What about the “binding response (RU)” value [3] of the same binder?
Answer: 89 RU

Question: And the “binding response (RU)” value [4]?
Answer: 19 RU

Question: What about the “RU value relative to the LALA-DA variant” value [5] of the same binder?
Answer: ~0.1 fold

Question: What about the “RU value relative to the other variants” value [6] of the same binder?
Answer: ≤ 0.5 fold

Question: And the “binding response (RU)” value [7]?
Answer: -4.4 RU

Question: And the “binding response (RU)” value [8]?
Answer: 8.8 RU

Question: What about the “binding response (RU)” value [9] of the same binder?
Answer: -2.7 RU

Question: And the “binding response (RU)” value [10]?
Answer: -0.3 RU

Question: And the “binding response (RU)” value [11]?
Answer: 15 RU

Question: What about the Kd [12] of the same binder?
Answer: 5.8 nM
